In patent publication US12077763B2, “RNA-based control of powdery mildew” (Greenlight Biosciences, Inc., priority 2021, dated 2024):

B1: ES45: dsRNA trigger SEQ ID NO 109; gene target Hypotethical effector (nucleic acid)
DNA: CTCACCTTGGCATCTACGAAGCCGACAGGAAGGTGGTGGCTACTATGGCCAACCATCGAATGGTGATGGAAGTGTGTATCCACCTTCATCTGGTACAGGTGGCTTTCTATCGCCAACTGCTACGAGCGGTTATCCGTCTGCAACTGGAACTGGCGGCTATTCATCTCCATCGGGCACCGGTGGCTACCCGTCTGCAACAGTTGAAAAAGACAATATTTCGAAGTTCCCGAGAGCTTTCGTATCCGGCAATGACTGCATCACGTCGAATTTCTACGATCCAAGACGAAAATAGTTTGTTTTTTTGCTGTTGGCGTGGAGTCTAGCTGTTGTGTACCCGAACCCTATTCGGATCATCAAATAGGATTGTAAGTTGGTTCATCATTTTATGAACAGATTCAAATTGTATTACCCCATTCTTAATCAATACCATGCAGGTGTGACTGACAGTC
B2: GS1888: dsRNA trigger SEQ ID NO 182; gene target Succinate dehydrogenase [ubiquinone] iron-sulfur subunit, mitochondrial (nucleic acid)
chain: TTTTAGGCGTTACAATCTTCAATAAATAACTAACATCGATAACAGGTCGTATACCAGCAGATACTAGTAAAGAAACGAAGATTTACCCCCTTCCTCATACCTATGTAGTTAAGGACATCGTCCCAGATCTCACACAGTTTTACAAACAGTATAAGTCCATCAAGCCATACCTTCAACGTACATCTCCCTCACCCAATGGTAAAGAATATCTACAAAGTAAGGAGGACAGAAAAAAACTCGATGGGTTATATGAGTGCATTTTGTGCGCATGCTGTTCTACTTCATGCCCCTCTTACTGGTGGAACTCTGAAGAATACTTGGGCCCAGCTGTTCTGATGCAAAGCTATAGATGGTTAGCAGATTCTCGAGATGAAAAGACAGCTGAGCGAAAGAGTGCTCTGGATAATAGTATGAGTCTCTATCGATGTCATACCATATTAAATTGTT
B3: GS1884: dsRNA trigger SEQ ID NO 187; gene target Peptidyl-prolyl cis-trans isomerase ssp-1 (nucleic acid)
chain: TAATACTTCATCTGGAAGCCATCGAGTTTGCTTTTTATTATCTGAATTTTTGAGGCATTAAACTACAATACCTATTAAGGTTCAATTCAACGTTACAGTATGTAGCAGTAAATATCATTTTTGGTATAAGAATAAAAATATTCAAATTTTTACCGAAAAAAATGAAGCAGTAAGTCATATTTCTGGGTCAAGTCTCTGTAAGTCTTGCGCATCAAGCTTGCAATTGAGACTCCAAATGTGACTGGATATGTATATATATATATATATGGTGTTATAGTTGTCAAATCGAATCTATTCTATTCTTTGAATCAGATGTAGACCAGATGCTGTTTCTATGATTTGACTCATTTCTCCAACTTTGAGTTCGAATGCAGCATCTTCGAATTCTTTCTGCATATCACCTCTACCAAAGAAACCAAGGTCACCTTGTTTTTTAGCACTATTGCAATCAGACTC
B4: GS1876: dsRNA trigger SEQ ID NO 210; gene target Uncharacterized transcriptional regulatory protein YKL222C (nucleic acid)
chain: CGCGTTCATAAAATATATCTTCATAATCAGCGTATTTAGGTGAAAGTGTAGTAGCCAATGTCCACATGGCATAGCATAGACAAATTGGAGGACGGGTCTGAATTGGACGTTCCAAAGACATGTAAAACCGGGCTTGATGTATGATGGGCATTGAAGGGTGATAGAGAGTGAAGTAGATATGATATAATTCTTTAATCATATAATCAGGCGGTAATGGTTCTTGAAGACCTAAGCTTAGTAGCTCTTTATTGATATTTGATGTAGTTTCTTTAGGCATCTGGGAGAAGCCTGAAATAGGTGGCGACGTTTCAATGGATGTAAGAAGAGGCCTACCATCAATTGCCAAATTCAAATCTATACCCATATTCCAATTTCTTTCGAGCCGGGGAGCTGCAGCATCGGGACTTATGATATCGCATTTTCCTTCCGAGTTGAGTCGAGTCTCCAATTGAGCTAGCCTAGCTTCAATTTCTTTTTCTTT

system: E. necator; test: Leaf disc assay, dry inoculum (settling tower), decrease in disease severity / hyphal growth (Example 2); details: decrease in disease severity (hyphal growth) relative to untreated control; time point 1 (untreated control hyphal growth ≥50%); value ± SE

Point of comparison: B4, “% decrease =/− SE TP1” value 20 ± 6%. Against it:
- B1 — higher, 41 ± 5%
- B2 — within error, 19 ± 6%
- B3 — within error, 12 ± 4%

same assay, conditions: decrease in disease severity (hyphal growth) relative to untreated control; time point 2; value ± SE

Point of comparison: B1, “% decrease =/− SE TP2” value 31 ± 7%. Against it:
- B2 — within error, 19 ± 6%
- B4 — lower, 10 ± 8%
